B1: Ras-related protein Rab-3A (Mus musculus), P63011 (parent)
chain: MASATDSRYGQKESSDQNFDYMFKILIIGNSSVGKTSFLFRYADDSFTPAFVSTVGIDFKVKTIYRNDKRIKLQIWDTAGQERYRTITTAYYRGAMGFILMYDITNEESFNAVQDWSTQIKTYSWDNAQVLLVGNKCDMEDERVVSSERGRQLADHLGFEFFEASAKDNINVKQTFERLVDVICEKMSESLDTADPAVTGAKQGPQLTDQQAPPHQDCAC
partner: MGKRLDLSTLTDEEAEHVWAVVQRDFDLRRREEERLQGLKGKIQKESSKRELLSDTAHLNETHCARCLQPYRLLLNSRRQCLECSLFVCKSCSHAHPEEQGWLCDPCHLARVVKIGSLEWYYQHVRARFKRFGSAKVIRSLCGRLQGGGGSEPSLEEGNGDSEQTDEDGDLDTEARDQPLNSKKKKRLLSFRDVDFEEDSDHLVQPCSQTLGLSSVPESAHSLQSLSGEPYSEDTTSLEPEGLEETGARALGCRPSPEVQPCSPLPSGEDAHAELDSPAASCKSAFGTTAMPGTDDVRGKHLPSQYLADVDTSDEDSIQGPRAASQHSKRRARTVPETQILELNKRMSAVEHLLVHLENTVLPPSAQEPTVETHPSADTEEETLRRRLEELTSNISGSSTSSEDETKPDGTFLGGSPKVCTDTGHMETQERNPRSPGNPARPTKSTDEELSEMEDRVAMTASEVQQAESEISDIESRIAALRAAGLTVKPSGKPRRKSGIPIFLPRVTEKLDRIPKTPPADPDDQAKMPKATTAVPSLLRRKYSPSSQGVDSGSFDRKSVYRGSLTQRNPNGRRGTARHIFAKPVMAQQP
B2: Ras-related protein Rab-27A (Mus musculus), Q9ERI2 (parent)
chain: MSDGDYDYLIKFLALGDSGVGKTSVLYQYTDGKFNSKFITTVGIDFREKRVVYRANGPDGAVGRGQRIHLQLWDTAGQERFRSLTTAFFRDAMGFLLLFDLTNEQSFLNVRNWISQLQMHAYCENPDIVLCGNKSDLEDQRAVKEEEARELAEKYGIPYFETSAANGTNISHAIEMLLDLIMKRMERCVDKSWIPEGVVRSNGHTSADQLSEEKEKGLCGC
partner: B1 partner

In one test the parent is B1. The note with it: with melph_mouse Mlph.
On to F19Y, for which the “effect of a mutation on the interaction” value is on record as “disrupting interaction”.

As for I87L;Y91F;G94D, the “effect of a mutation on the interaction” value is reported as “disrupting interaction”.

Regarding F19Y;G94D, the “effect of a mutation on the interaction” value is recorded as “disrupting interaction”.

Turning to G94D, the “effect of a mutation on the interaction” value was “disrupting interaction”.

Another test covers variants of B2. The note with it: with melph_mouse Mlph.
For the variant Y6F;L84I;F88Y;D91G, the “effect of a mutation on the interaction” value was “disrupting interaction”.

Regarding Y6F, the “effect of a mutation on the interaction” value was “disrupting interaction”.

For the origin of these results see IntAct's records for PubMed 18940604.
